Here are results for one molecule from US12605469B2, “Tumor specific antibody conjugates and uses therefor” (The University of North Carolina at Charlotte, priority 2019, dated 2026).

For one assay, the target named is T1, shed MUC1 (Homo sapiens, UniProt P15941).
T1 construct: from tissue; host or cells: human plasma, diluted 1:2 and 1:10
The assay is described as follows: enzyme immunoassay (EIA) for shed MUC1 in plasma. On the procedure: To that end, the ability of TAB-004 to detect levels of shed MUC1 in the plasma of patients was compared to the performances of these antibodies in plasma samples. An enzyme immunoassay (EIA) has been optimized using the TAB-004 antibody to capture and detect levels of shed MUC1 present in circulation. Briefly, a 96-well ELISA plate was coated with 100 μl of TAB-004 antibody at 50 μg/mL in PBS and incubated overnight at 4° C. Following incubation, excess TAB-004 capture antibody was removed from the plate. The plate was blocked with 200 μl of 1% dry milk in PBS to avoid non-specific binding and incubated for 1 hour at 4° C. The plates were washed extensively (3 times) with 250 μl PBS containing 0.05% (v/v) TWEEN®-20 using an ELISA plate washer. A MUC1 standard using a 25-mer polypeptide preparation from MUC1 TR was prepared ranging from 0-2000 U/ml. The test plasma was diluted 1:2, and 1:10 in 0.1% milk in PBS, and 100 μl was added to the appropriate wells in triplicate, and the plates were incubated for 2 hours at 37° C.
Plates were then washed and 100 μl of a polyclonal rabbit anti-MUC1 antibody (Genway) were added at 1:300,000 dilution in 0.1% milk in PBS to each well, and the plate was incubated for 1 hour at 37° C. The polyclonal antibody was washed from the wells and horse radish peroxidase-labeled goat anti-rabbit IgG was added at a 1:1,000 dilution in 0.1% milk in PBS and incubated at 37° C. for 1 hour. After washing the plates, 100 μL of a solution consisting of peroxidase substrate (TMB) was added to the wells, and the plates incubated at room temperature for 30 minutes in the dark. The reaction was stopped by the addition of 25 μl of 4.0 N sulfuric acid, and the optical density read at a wavelength of 450 nm using a SPECTRA-MAX 250 spectrophotometer. Standard curves were generated with regression analyses to determine concentrations of the unknown samples.
Arbitrary units (U)/ml were chosen based on an initial reference standard of MUC1. A linear range was determined to be 50-800 units/ml of MUC1 antigen. […]

The subject of a further assay is KCM tumor cells. The assay is described as follows: NK cell specific lysis of tumor cells. The format is cell-based, mouse. To be noted: various E:T ratios. The source says:
FIGS. 4A and 4B are graphs showing that an exemplary antibody of the presently disclosed subject matter (TAB-004) enhanced the cytotoxicity of Natural Killer (NK) cells to kill target tumor cells.
The TAB-004 antibody alone or conjugated to CpG ODN bound to a tumor cell line (referred to herein as the “KCM” cell line; see FIG. 3) generated from the triple transgenic PDA.MUC1.Tg mice.

Another assay has as its target T2, mutated K-ras (Mus musculus, UniProt P32883, G12D).
T2 construct: from tissue; host or cells: tumour tissue expressing the K-ras mutation but not human MUC1
Put plainly: staining of tumor tissues expressing the K-ras mutation but not human MUC1. The format is binding.

Another assay has as its system CTCs. The assay is described as follows: […] measurement of MUC1-expressing CTCs. The format is cell-based, human. To be noted: 7.5 ml blood spiked with PANC1 cells. The protocol:
Both breast and pancreatic primary and metastatatic tumors express high levels of tumor-associated MUC1 recognized by the TAB-004 antibody of the presently disclosed subject matter. Therefore, CTCs in these patients should be recognized by the TAB-004 antibody. In preliminary experiments, levels of MUC1 were assessed using the TAB-004 antibody. First, the ability to use the Veridex […]® system to measure MUC1-expressing CTCs using 7.5 ml blood samples (analogous to human samples) spiked with PANC1 cells, which are a human pancreatic cancer cell line was tested. Approximately 90% of the CTCs (EpCAM+ cells) expressed MUC1. […] Therefore, using the TAB-004 antibody appears to accurately detect micrometastases in pancreatic and breast cancer patients.

For assay [1], the target named is tumor-specific form of MUC1 (tMUC) (Homo sapiens, UniProt P15941). To be noted: cited from earlier work.
In assay [2] the test system is human breast cancer cell lines. Put plainly: flow cytometry of breast cancer cell lines with TAB-004 conjugated to Cy7. It counts as cell-based. The note with it: Cy7 conjugate. On the procedure:
FIG. 13 is a series of plots of flow cytometric analyses of TNBC cell lines stained with a Cy7-conjugated TAB-004 monoclonal antibody (1 μg/sample). Compared to isotype control (solid trace in each panel; red lines in color photo), all cell lines expressed high to moderate levels of tMUC. MDA-MB-231 is mesenchymal in phenotype and loses MUC1 in vitro while Hs578T is a mesenchymal stem-like carcinosarcoma that has low expression of tMUC (depicted with dashed lines in each panel).
A 45-panel human breast cancer cell lines were tested for tMUC expression with TAB-004 conjugated to Cy7 and flow cytometry. […] In particular, apart from those with a mesenchymal phenotype, all cell lines expressed high levels of tMUC.
On the technique in general: A flow cytometer gives signals particle by particle.

B1: TAB-004: mAb of the IgG isotype produced by hybridoma ATCC PTA-11550; binds tumor-specific epitope of human MUC1 (antibody, V domains shown)
VH: EVQLQQSGGERATPGASVKMSCKTSGYTFTNYWMHWVKQRPGQGLEWIGYINPSSGYTQYNQKFKDKATLTADKSSSTAYIQLSSLTSEDSAVYYCSTYYGDYLFPYWGQGTLVTVSA
VL: DVLMTQTPLSLPVSLGDQASISCRSSQDIVYGNGNTYLEWYLQKPGQSPKLLIYKVSNRFSGVPDRFSGSGSGTDFTLKISRVEAEDLGVYYCFQGSHVPYTFGGGTKLEIKR
In the case of B1, in the assay with shed MUC1 (36 breast cancer plasma samples for CA15-3), the “false negatives / positivity of cancer patient plasma” value is on record as “All cancer patient plasma was positive”. Also, the “stage 2 and stage 3 pancreatic cancer patients above the normal range” value in the assay with shed MUC1 (n=5 per stage) is “all stage 2 and stage 3 patients”. Further, in the assay with shed MUC1 (n=12 normal, cutoff <40 U/ml TAB-004, <31 U/ml CA15-3), the “false positive results in normal patients” value was “no false positives”. Besides, in the assay with KCM tumor cells, the “specific lysis of tumor cells by NK cells” value is “enhanced specific lysis of KCM tumor cells”. Besides, the “cross reactivity with mutated K-ras” value with mutated K-ras was “cross reacted with mutated K-ras”. The “CTCs (EpCAM+ cells) expressing MUC1” value in the assay with CTCs was “Approximately 90%”. Moreover, in assay [1], the binding affinity was 3 ng/mL and the “binding to unrelated antigens” value is recorded as “does not bind unrelated antigens”. Also, the Kd in assay [1] (read-out: binding affinity) was 0.02 nM. Further, the “staining of breast cancer cell line subtypes” value in assay [2] (45-panel) is given as “stained strongly”. For the same molecule, the “staining of MDA-MB-231 cell line” value in assay [2] is on record as “stained weakly”.
